# Article PMC12579241
# What was measured:
# Assay in all cases: SPR
# [1] = target: IgG1 Fc fragment (prepared by IdeS digest of bevacizumab) (human)
# [2] = target: recombinant Fab fragment of trastuzumab (human) [IgG part: P01857]
# [3] = target: trastuzumab (Herceptin) (human) (UniProt P01834)
Substance,Kd [1] [nM],Kd [2] [nM],Kd [3] [nM]
Azo-ProtG (wild-type C2 domain of streptococcal protein G with N-terminal Azo-tag and C-terminal Strep-tag II) (domain or fragment),499,19700,–
"Azo-ProtG^N478R (C2 domain of streptococcal protein G with Asn478 replaced by Arg, N-terminal Azo-ta (domain or fragment)",682,> 256000,459
